In general, stoichiometry N refers to the number of molecules, sites or subunits per partner or assembly.

In assay [1] the target is Ac-SLP-1, saposin-like protein from the dog hookworm Ancylostoma caninum (Ancylostoma caninum). Briefly: native gel or EMSA; native gel of purified Ac-SLP-1; migrates at 20 kDa under native conditions, at smaller sizes with SDS. (In EMSA bound probe runs differently from free probe, usually more slowly.)
Assay [2] shares this target. Briefly: SEC-MALS; Superose-12 column; samples injected at 5–10 mg mL^−1; 100 mM NaCl, 20 mM HEPES (pH 7.5) or 100 mM Na-citrate (pH 5.0); same result at both pH. (Size exclusion chromatography separates by hydrodynamic size, large species first.)

On to “Ac-SLP-1, saposin-like protein from the dog hookworm Ancylostoma caninum (natural protein)”, for which the stoichiometry N in assay [1] and in assay [2] was 2 each time.

Values taken from paper PMC3184995.
